According to the supplement of paper PMC10126150:
± gives the standard deviation of the averaged measurements.

Tested on: ATP
Assay: switch fluorescence ratio, 500 uM ATP over buffer (Cy3 cluster intensity, sum of 5 cycles each) (fold (ratio)); higher = stronger signal-on switching upon ATP binding; sequences stand for … in TCGTCGGCAGCGTCAGATGTGTATAAGAGACAGTTTTTTTTTTTTTTTTTTTTTTTTT…TC
Conditions: aptamer strand: ATP DNA aptamer (quencher-CACCTGGGGGAGTATTGCGGAGGAAGG + anchor), 100 nM annealed; ATP concentration: 500 uM
Procedure, shortened: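 Imaging in selection buffer was followed by imaging after 15 min with 500 uM ATP at 22 °C, for Cy3-labelled switching-strand clusters annealed to 100 nM quencher-labelled ATP aptamer on a modified Illumina MiSeq flow-cell. Five of these buffer/ATP cycles ran, separated by NaOH stripping and re-annealing. The fluorescence ratio per cluster is summed target-cycle over summed buffer-cycle Cy3 intensity, averaged per switch-domain sequence; clusters outside 100-1000 RFU were removed.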
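Note: ATP exposure 15 min at 22 °C before imaging.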

## GGTCGCTTTT
  switch fluorescence ratio: 0.9949 ± 0.0043

## GGTCGGACGT
  switch fluorescence ratio: 0.992 ± 0.086

## GGTCGGGACC
  switch fluorescence ratio: 0.998 ± 0.033

## GGTCGGGGGT
  switch fluorescence ratio: 1.03 ± 0.039

## GGTCGGGTTT
  switch fluorescence ratio: 1.01 ± 0.014

## GGTCGTAGCC
  switch fluorescence ratio: 0.9719 ± 0.0084

## GGTCGTCTGC
  switch fluorescence ratio: 0.984 ± 0.018

## GGTCTACCGG
  switch fluorescence ratio: 1.01 ± 0.017

## GGTCTAGAAA
  switch fluorescence ratio: 1.21 ± 0.3

## GGTCTCTGGG
  switch fluorescence ratio: 1 ± 0.016

## GGTCTGCGCG
  switch fluorescence ratio: 1.02 ± 0.037

## GGTCTGTATT
  switch fluorescence ratio: 0.972 ± 0.012

## GGTCTGTGTG
  switch fluorescence ratio: 0.984 ± 0.028

## GGTCTGTTTC
  switch fluorescence ratio: 1.01 ± 0.015

## GGTCTTGAGG
  switch fluorescence ratio: 1.01 ± 0.028

## GGTCTTGTTG
  switch fluorescence ratio: 1.02 ± 0.036

## GGTGAAAGCC
  switch fluorescence ratio: 0.98 ± 0.049

## GGTGAAAGGA
  switch fluorescence ratio: 0.979 ± 0.058

## GGTGAACAGT
  switch fluorescence ratio: 0.97143 ± 0.00048

## GGTGAACCGT
  switch fluorescence ratio: 1.001 ± 0.0046

## GGTGAAGGAT
  switch fluorescence ratio: 0.982 ± 0.026

## GGTGAAGGTA
  switch fluorescence ratio: 0.929 ± 0.045

## GGTGAATAAT
  switch fluorescence ratio: 0.9969 ± 0.0065

## GGTGAGAAGT
  switch fluorescence ratio: 1.01 ± 0.013

## GGTGAGAGGT
  switch fluorescence ratio: 0.9696 ± 0.0055

## GGTGAGGCAA
  switch fluorescence ratio: 1.19 ± 0.12

## GGTGATGATC
  switch fluorescence ratio: 1.038 ± 0.0044

## GGTGATGGGT
  switch fluorescence ratio: 0.971 ± 0.04

## GGTGCAACAT
  switch fluorescence ratio: 1.03 ± 0.051

## GGTGCGATGC
  switch fluorescence ratio: 1.7 ± 0.081

## GGTGCGGTCG
  switch fluorescence ratio: 0.9824 ± 0.0053

## GGTGCGTACG
  switch fluorescence ratio: 1.01 ± 0.058

## GGTGCTACAC
  switch fluorescence ratio: 1.04 ± 0.025

## GGTGCTATCT
  switch fluorescence ratio: 0.992 ± 0.015

## GGTGCTGGTG
  switch fluorescence ratio: 1.05 ± 0.025

## GGTGGAACAG
  switch fluorescence ratio: 1.02 ± 0.028

## GGTGGAAGAT
  switch fluorescence ratio: 1 ± 0.045

## GGTGGAAGTA
  switch fluorescence ratio: 0.998 ± 0.064

## GGTGGAATCT
  switch fluorescence ratio: 1.02 ± 0.052

## GGTGGACACT
  switch fluorescence ratio: 1.03 ± 0.024

## GGTGGACTTA
  switch fluorescence ratio: 1.01 ± 0.03

## GGTGGAGTCG
  switch fluorescence ratio: 1.009 ± 0.0085

## GGTGGATTTG
  switch fluorescence ratio: 0.981 ± 0.062

## GGTGGCAAGG
  switch fluorescence ratio: 0.9912 ± 0.0094

## GGTGGCCCAA
  switch fluorescence ratio: 1.001 ± 0.0059

## GGTGGGAACA
  switch fluorescence ratio: 0.992 ± 0.03

## GGTGGGAGCT
  switch fluorescence ratio: 1.01 ± 0.075

## GGTGGGATCA
  switch fluorescence ratio: 1.09 ± 0.18

## GGTGGGATTC
  switch fluorescence ratio: 1.01 ± 0.014

## GGTGGGCTAA
  switch fluorescence ratio: 0.9827 ± 0.0057

## GGTGGGGATT
  switch fluorescence ratio: 1.07 ± 0.17

## GGTGGGGGG
  switch fluorescence ratio: 0.977 ± 0.012

## GGTGGGGGGC
  switch fluorescence ratio: 0.978 ± 0.048

## GGTGGGGGTA
  switch fluorescence ratio: 1.04 ± 0.042

## GGTGGGGGTC
  switch fluorescence ratio: 1.02 ± 0.022

## GGTGGGGGTT
  switch fluorescence ratio: 0.999 ± 0.036

## GGTGGGGT
  switch fluorescence ratio: 1.01 ± 0.0055

## GGTGGGGTAT
  switch fluorescence ratio: 0.98 ± 0.021

## GGTGGGTACG
  switch fluorescence ratio: 0.986 ± 0.052

## GGTGGGTGGA
  switch fluorescence ratio: 1 ± 0.021

## GGTGGGTGGT
  switch fluorescence ratio: 0.99 ± 0.036

## GGTGGGTGTG
  switch fluorescence ratio: 1 ± 0.036

## GGTGGTTGGC
  switch fluorescence ratio: 1.007 ± 0.0075

## GGTGGTTGTT
  switch fluorescence ratio: 1.01 ± 0.043

## GGTGTAAAAG
  switch fluorescence ratio: 1.014 ± 0.0036

## GGTGTAGCGC
  switch fluorescence ratio: 1.015 ± 0.0075

## GGTGTCAGGG
  switch fluorescence ratio: 0.989 ± 0.013

## GGTGTCGCTA
  switch fluorescence ratio: 0.9795 ± 0.0094

## GGTGTCGTCA
  switch fluorescence ratio: 1.024 ± 0.0081

## GGTGTCGTTT
  switch fluorescence ratio: 1.02 ± 0.024

## GGTGTCTGCA
  switch fluorescence ratio: 0.9931 ± 0.0019

## GGTGTGAGAG
  switch fluorescence ratio: 1.02 ± 0.038

## GGTGTGCCAT
  switch fluorescence ratio: 0.9897 ± 0.0069

## GGTGTGGCGA
  switch fluorescence ratio: 1.03 ± 0.11

## GGTGTGGTGA
  switch fluorescence ratio: 1.06 ± 0.049

## GGTGTGTGAC
  switch fluorescence ratio: 0.999 ± 0.016

## GGTGTGTGAG
  switch fluorescence ratio: 0.965 ± 0.01

## GGTGTGTGTT
  switch fluorescence ratio: 0.9951 ± 0.0078

## GGTGTTGAGT
  switch fluorescence ratio: 0.993 ± 0.037

## GGTGTTGGAT
  switch fluorescence ratio: 1.01 ± 0.002

## GGTGTTGGGC
  switch fluorescence ratio: 0.998 ± 0.067

## GGTGTTGGTA
  switch fluorescence ratio: 0.974 ± 0.029

## GGTGTTGTCT
  switch fluorescence ratio: 1.031 ± 0.0061

## GGTGTTTAAG
  switch fluorescence ratio: 0.9717 ± 0.0067

## GGTGTTTGTT
  switch fluorescence ratio: 0.956 ± 0.065

## GGTTAAAACT
  switch fluorescence ratio: 0.987 ± 0.048

## GGTTAAAGGA
  switch fluorescence ratio: 0.95798 ± 0.00066

## GGTTAACGGA
  switch fluorescence ratio: 1 ± 0.016

## GGTTAACTGT
  switch fluorescence ratio: 1.01 ± 0.026

## GGTTAAGAAA
  switch fluorescence ratio: 1.021 ± 0.0081

## GGTTAAGAGG
  switch fluorescence ratio: 1.02 ± 0.041

## GGTTAGGGCG
  switch fluorescence ratio: 1.0062 ± 0.00068

## GGTTAGGGTG
  switch fluorescence ratio: 1.047 ± 0.007

## GGTTAGTACA
  switch fluorescence ratio: 1.01 ± 0.041

## GGTTATAAGT
  switch fluorescence ratio: 0.975 ± 0.034

## GGTTATATTT
  switch fluorescence ratio: 1.03 ± 0.072

## GGTTATGCAG
  switch fluorescence ratio: 0.977 ± 0.1

## GGTTATGGAG
  switch fluorescence ratio: 0.964 ± 0.046

## GGTTATTCGG
  switch fluorescence ratio: 0.993 ± 0.053

## GGTTCAACAT
  switch fluorescence ratio: 0.985 ± 0.049
